Test results reported in PMC12065890.

How the values were obtained:
[1] = biological target: full-length Amh (SPR protein) (zebrafish); test: SPR
[2] = biological target: Amh C-terminal domain (SPR protein) (zebrafish); test: SPR

Kd [1]: 116 nM
Kd [2]: 1390 nM
Substance: Bmpr2a domain protein (protein kinase domain of Bmpr2a, SPR protein) (domain or fragment)
